The chains are these.
T1: EsCas13d, nuclease-dead (Eubacterium siraeum, UniProt B0MS50, R295A;H300A;R849A;H854A)
T1 sequence: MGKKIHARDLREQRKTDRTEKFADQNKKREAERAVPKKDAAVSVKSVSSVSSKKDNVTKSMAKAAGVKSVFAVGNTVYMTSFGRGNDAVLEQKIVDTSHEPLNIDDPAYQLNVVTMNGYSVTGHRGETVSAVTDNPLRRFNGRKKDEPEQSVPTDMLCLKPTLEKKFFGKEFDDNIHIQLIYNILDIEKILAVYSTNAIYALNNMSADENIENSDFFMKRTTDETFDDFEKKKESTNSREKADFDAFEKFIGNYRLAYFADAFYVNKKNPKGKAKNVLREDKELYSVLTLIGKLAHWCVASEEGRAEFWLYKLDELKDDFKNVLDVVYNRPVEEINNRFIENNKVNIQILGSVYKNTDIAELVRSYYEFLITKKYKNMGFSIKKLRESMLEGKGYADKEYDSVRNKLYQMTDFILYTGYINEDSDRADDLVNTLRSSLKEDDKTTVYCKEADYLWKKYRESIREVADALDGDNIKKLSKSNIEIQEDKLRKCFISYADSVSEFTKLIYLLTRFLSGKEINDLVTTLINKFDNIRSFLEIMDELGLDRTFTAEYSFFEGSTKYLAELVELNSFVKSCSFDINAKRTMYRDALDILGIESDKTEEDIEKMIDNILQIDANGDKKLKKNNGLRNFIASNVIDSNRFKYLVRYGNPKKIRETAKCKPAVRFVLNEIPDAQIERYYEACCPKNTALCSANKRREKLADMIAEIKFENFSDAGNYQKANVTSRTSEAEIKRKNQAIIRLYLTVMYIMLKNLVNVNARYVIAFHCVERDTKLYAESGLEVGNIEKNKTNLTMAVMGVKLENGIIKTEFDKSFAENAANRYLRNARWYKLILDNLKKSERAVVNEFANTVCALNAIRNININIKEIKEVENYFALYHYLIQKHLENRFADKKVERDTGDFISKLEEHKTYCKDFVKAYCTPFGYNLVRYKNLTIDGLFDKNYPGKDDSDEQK

B1: target 1 insC 3' of 13,insU 3' of 9 (mixed)
RNA 1: CACCCGUGCAAAAAUGCAGGGGUCUAAAACUGAGCGGAUAACCUCUCUAUGG
RNA 2: GGGAAUGGAUCCACAUCUACGAAUUCGUACCAUAGAGAGCGUUAUUCCGCUCACCGAGAUCGGAAGAGCACACGU
B2: target 1 insG 3' of 14,insG 3' of 6 (mixed)
RNA 1: CACCCGUGCAAAAAUGCAGGGGUCUAAAACUGAGCGGAUAACCUCUCUAUGG
RNA 2: GGGAAUGGAUCCACAUCUACGAAUUCGUACCAUAGAGAGGGUUAUCCGGCUCACCGAGAUCGGAAGAGCACACGU
B3: target 1 C4A,U11A (mixed)
RNA 1: CACCCGUGCAAAAAUGCAGGGGUCUAAAACUGAGCGGAUAACCUCUCUAUGG
RNA 2: GGGAAUGGAUCCACAUCUACGAAUUCGUACCAUAGAGAGGAUAUCCGAUCACCGAGAUCGGAAGAGCACACGU
B4: target 1 C4A,G5A (mixed)
RNA 1: CACCCGUGCAAAAAUGCAGGGGUCUAAAACUGAGCGGAUAACCUCUCUAUGG
RNA 2: GGGAAUGGAUCCACAUCUACGAAUUCGUACCAUAGAGAGGUUAUCCAAUCACCGAGAUCGGAAGAGCACACGU
B5: target 1 C2G,U19G (mixed)
RNA 1: CACCCGUGCAAAAAUGCAGGGGUCUAAAACUGAGCGGAUAACCUCUCUAUGG
RNA 2: GGGAAUGGAUCCACAUCUACGAAUUCGUACCAGAGAGAGGUUAUCCGCUGACCGAGAUCGGAAGAGCACACGU
B6: target 1 A9G,A18C (mixed)
RNA 1: CACCCGUGCAAAAAUGCAGGGGUCUAAAACUGAGCGGAUAACCUCUCUAUGG
RNA 2: GGGAAUGGAUCCACAUCUACGAAUUCGUACCAUCGAGAGGUUGUCCGCUCACCGAGAUCGGAAGAGCACACGU
B7: target 1 insU 3' of 20,insC 3' of 8 (mixed)
RNA 1: CACCCGUGCAAAAAUGCAGGGGUCUAAAACUGAGCGGAUAACCUCUCUAUGG
RNA 2: GGGAAUGGAUCCACAUCUACGAAUUCGUACCAUUAGAGAGGUUAUCCCGCUCACCGAGAUCGGAAGAGCACACGU
B8: target 1 insG 3' of 14,insC 3' of 8 (mixed)
RNA 1: CACCCGUGCAAAAAUGCAGGGGUCUAAAACUGAGCGGAUAACCUCUCUAUGG
RNA 2: GGGAAUGGAUCCACAUCUACGAAUUCGUACCAUAGAGAGGGUUAUCCCGCUCACCGAGAUCGGAAGAGCACACGU
B9: target 1 U8G,U11G (mixed)
RNA 1: CACCCGUGCAAAAAUGCAGGGGUCUAAAACUGAGCGGAUAACCUCUCUAUGG
RNA 2: GGGAAUGGAUCCACAUCUACGAAUUCGUACCAUAGAGAGGGUAGCCGCUCACCGAGAUCGGAAGAGCACACGU
B10: target 1 G5C,C6U (mixed)
RNA 1: CACCCGUGCAAAAAUGCAGGGGUCUAAAACUGAGCGGAUAACCUCUCUAUGG
RNA 2: GGGAAUGGAUCCACAUCUACGAAUUCGUACCAUAGAGAGGUUAUCUCCUCACCGAGAUCGGAAGAGCACACGU
B11: target 1 G15A,U19A (mixed)
RNA 1: CACCCGUGCAAAAAUGCAGGGGUCUAAAACUGAGCGGAUAACCUCUCUAUGG
RNA 2: GGGAAUGGAUCCACAUCUACGAAUUCGUACCAAAGAAAGGUUAUCCGCUCACCGAGAUCGGAAGAGCACACGU
B12: target 1 insA 3' of 17,insA 3' of 12 (mixed)
RNA 1: CACCCGUGCAAAAAUGCAGGGGUCUAAAACUGAGCGGAUAACCUCUCUAUGG
RNA 2: GGGAAUGGAUCCACAUCUACGAAUUCGUACCAUAGAAGAGGAUUAUCCGCUCACCGAGAUCGGAAGAGCACACGU
B13: target 1 insU 3' of 18,insC 3' of 13 (mixed)
RNA 1: CACCCGUGCAAAAAUGCAGGGGUCUAAAACUGAGCGGAUAACCUCUCUAUGG
RNA 2: GGGAAUGGAUCCACAUCUACGAAUUCGUACCAUAUGAGAGCGUUAUCCGCUCACCGAGAUCGGAAGAGCACACGU

The target in this data set is T1, EsCas13d, nuclease-dead. Put plainly: crRNA (strand 1, pre-loaded); Mg2+; 40 mM Tris-HCl pH 7.5, 150 mM NaCl, 6 mM MgCl2, 1 mM DTT, 0.1% Tween-20, 0.2 mg/ml BSA; 25 C; 10 min per concentration, then washed. The following applies: tags: His6-TwinStrep-SUMO cleaved; N-terminal SNAP kept (SNAP-Surface 488); label: 3' end held by stalled T7 RNA polymerase.
As a reminder, the Kd is the constant that tells how readily two partners part at equilibrium. A higher Kd goes with weaker binding. In the case of B1, the Kd came to 10 ± 0.5 nM.
B2 displayed a Kd of 10.7 ± 0.9 nM.
In turn, B3 yielded an equilibrium dissociation constant (Kd) of 23.9 ± 1.8 nM.
In the case of B4 it was 44 ± 7 nM; in that of B5, 38 ± 4 nM.
The same measure for B6: 64 ± 7 nM; for B7: 19.1 ± 1 nM.
B8 came in with an equilibrium dissociation constant (Kd) of 41 ± 5 nM.
The same measure for B9: 18.9 ± 0.7 nM; for B10: 11.6 ± 0.4 nM.
Molecule B11 came in with a dissociation constant (Kd) of 60 ± 19 nM.
The same measure for B12: 42 ± 8 nM; for B13: 49 ± 7 nM.

Source of the values: PMC10786891, “Massively parallel profiling of RNA-targeting CRISPR-Cas13d”.
